Data on one molecule can be found in patent US20060234945A1, “Ophthalmic therapeutic composition” (Nihon Tenganyaku Kenkyusho Co., LTD., priority 2002, published 2006).

This assay has as its system rabbit corneal wound model. Put plainly: Corneal wound healing promotion action 1 (in vivo), approx. 6 mm corneal epithelial abrasion. Details: species or system Japanese white rabbit. The conditions noted are these: 5 μM eye drop. How it is done: (2) Corneal Wound Healing Promotion Action 1 (In Vivo)
Using a male Japanese white rabbit, a wound of approximately 6 mm in diameter was produced in the cornea by inducing corneal epithelial abrasion in accordance with the method of Cintron et al. (Ophthalmic Res., 11, pp. 90-96 (1979)). The wound area was measured using the fluorescein-stained area as an index. The effects of the test compound on corneal wound healing were examined.
The eye drops containing the respective concentrations of the test compound were instilled (30 μl at a time) at 0, 3, 6, 9, 12, 18, 24, 27, 30, 33, 36, 42, and 48 hours after inducing corneal epithelial abrasion. In measuring the wound area, fluorescein staining was carried out and a photograph of the cornea was measured. The fluorescein-stained area of the photographed cornea was computed using an image analysis processing system.
In Tables 1 and 2, the respective values indicate the mean value±standard deviation (n=6). Statistical analysis was carried out using Dunnett's multiple comparison with respect to PBS with the area of the corneal wound portion immediately after (0 hours after) corneal epithelial abrasion being set to 100% (*p<0.05, ** p<0.01; vs. control).

B1: EGF: Epidermal Growth Factor, polypeptide with a molecular weight of 6000, mitosis-promoting growth factor for corneal epithelium (protein, UniProt P01133 23-1207, looked up)
Pro-epidermal growth factor: PQHWSCPEGTLAGNGNSTCVGPAPFLIFSHGNSIFRIDTEGTNYEQLVVDAGVSVIMDFHYNEKRIYWVDLERQLLQRVFLNGSRQERVCNIEKNVSGMAINWINEEVIWSNQQEGIITVTDMKGNNSHILLSALKYPANVAVDPVERFIFWSSEVAGSLYRADLDGVGVKALLETSEKITAVSLDVLDKRLFWIQYNREGSNSLICSCDYDGGSVHISKHPTQHNLFAMSLFGDRIFYSTWKMKTIWIANKHTGKDMVRINLHSSFVPLGELKVVHPLAQPKAEDDTWEPEQKLCKLRKGNCSSTVCGQDLQSHLCMCAEGYALSRDRKYCEDVNECAFWNHGCTLGCKNTPGSYYCTCPVGFVLLPDGKRCHQLVSCPRNVSECSHDCVLTSEGPLCFCPEGSVLERDGKTCSGCSSPDNGGCSQLCVPLSPVSWECDCFPGYDLQLDEKSCAASGPQPFLLFANSQDIRHMHFDGTDYGTLLSQQMGMVYALDHDPVENKIYFAHTALKWIERANMDGSQRERLIEEGVDVPEGLAVDWIGRRFYWTDRGKSLIGRSDLNGKRSKIITKENISQPRGIAVHPMAKRLFWTDTGINPRIESSSLQGLGRLVIASSDLIWPSGITIDFLTDKLYWCDAKQSVIEMANLDGSKRRRLTQNDVGHPFAVAVFEDYVWFSDWAMPSVMRVNKRTGKDRVRLQGSMLKPSSLVVVHPLAKPGADPCLYQNGGCEHICKKRLGTAWCSCREGFMKASDGKTCLALDGHQLLAGGEVDLKNQVTPLDILSKTRVSEDNITESQHMLVAEIMVSDQDDCAPVGCSMYARCISEGEDATCQCLKGFAGDGKLCSDIDECEMGVPVCPPASSKCINTEGGYVCRCSEGYQGDGIHCLDIDECQLGEHSCGENASCTNTEGGYTCMCAGRLSEPGLICPDSTPPPHLREDDHHYSVRNSDSECPLSHDGYCLHDGVCMYIEALDKYACNCVVGYIGERCQYRDLKWWELRHAGHGQQQKVIVVAVCVVVLVMLLLLSLWGAHYYRTQKLLSKNPKNPYEESSRDVRSRRPADTEDGMSSCPQPWFVVIKEHQDLKNGGQPVAGEDGQAADGSMQPTSWRQEPQLCGMGTEQGCWIPVSSDKGSCPQVMERSFHMPSYGTQTLEGGVEKPHSLLSANPLWQQRALDPPHQMELTQ
modifications: Pro-epidermal growth factor
notes: Epidermal Growth Factor, polypeptide with a molecular weight of 6000, mitosis-promoting growth factor for corneal epithelium
Consider B1, for which the “Healing ratio (%)” value was 0% (0 hr (baseline)); 14.49 ± 3.42% (6 hr); 31.63 ± 1.29% (12 hr); 70.78 ± 6.91% (24 hr); 96.41 ± 3.97% (36 hr); 99.58 ± 1.03% (48 hr).
